The assay deals with CLDN18.2 (亲和力检测, Table 2 ka/kd/KD). Briefly: affinity measurement, method not described.

Results on one substance are retold here after patent CN115969997A.

For IMAB362 (antibody), the Kd was determined as 2.89 nM.
